How the values were obtained:
[1] = target: JMY1-119 (pCMV-HA-JMY1-119, in vitro translated) (UniProt Q9QXM1 1-119); assay: in vitro translated JMY derivatives tested for binding to STRAP
[2] = target: T1, JMY683-983 (pCMV-HA-JMY683-983, in vitro translated) (UniProt Q9QXM1 683-983); assay: as above
T1 sequence (looked up): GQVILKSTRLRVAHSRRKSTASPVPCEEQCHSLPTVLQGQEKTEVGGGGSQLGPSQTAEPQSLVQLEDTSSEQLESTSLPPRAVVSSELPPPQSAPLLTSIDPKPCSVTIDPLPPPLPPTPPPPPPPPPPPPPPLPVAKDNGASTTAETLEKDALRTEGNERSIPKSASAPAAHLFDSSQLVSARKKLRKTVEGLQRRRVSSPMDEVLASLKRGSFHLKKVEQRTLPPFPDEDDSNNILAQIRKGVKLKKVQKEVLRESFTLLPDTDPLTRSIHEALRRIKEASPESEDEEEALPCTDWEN

[3] = target: T2, Flag-tagged full-length p300 (baculovirus expressed, on M2-anti-flag antibody agarose) (UniProt Q09472 2-2414, limits assumed); assay: biochemical binding assay with a panel of p300 derivatives
T2 construct: mature; also called flag-p300; flag-tagged wild-type p300; not shown: Flag tag
T2 sequence (Q09472 2-2414 limits assumed): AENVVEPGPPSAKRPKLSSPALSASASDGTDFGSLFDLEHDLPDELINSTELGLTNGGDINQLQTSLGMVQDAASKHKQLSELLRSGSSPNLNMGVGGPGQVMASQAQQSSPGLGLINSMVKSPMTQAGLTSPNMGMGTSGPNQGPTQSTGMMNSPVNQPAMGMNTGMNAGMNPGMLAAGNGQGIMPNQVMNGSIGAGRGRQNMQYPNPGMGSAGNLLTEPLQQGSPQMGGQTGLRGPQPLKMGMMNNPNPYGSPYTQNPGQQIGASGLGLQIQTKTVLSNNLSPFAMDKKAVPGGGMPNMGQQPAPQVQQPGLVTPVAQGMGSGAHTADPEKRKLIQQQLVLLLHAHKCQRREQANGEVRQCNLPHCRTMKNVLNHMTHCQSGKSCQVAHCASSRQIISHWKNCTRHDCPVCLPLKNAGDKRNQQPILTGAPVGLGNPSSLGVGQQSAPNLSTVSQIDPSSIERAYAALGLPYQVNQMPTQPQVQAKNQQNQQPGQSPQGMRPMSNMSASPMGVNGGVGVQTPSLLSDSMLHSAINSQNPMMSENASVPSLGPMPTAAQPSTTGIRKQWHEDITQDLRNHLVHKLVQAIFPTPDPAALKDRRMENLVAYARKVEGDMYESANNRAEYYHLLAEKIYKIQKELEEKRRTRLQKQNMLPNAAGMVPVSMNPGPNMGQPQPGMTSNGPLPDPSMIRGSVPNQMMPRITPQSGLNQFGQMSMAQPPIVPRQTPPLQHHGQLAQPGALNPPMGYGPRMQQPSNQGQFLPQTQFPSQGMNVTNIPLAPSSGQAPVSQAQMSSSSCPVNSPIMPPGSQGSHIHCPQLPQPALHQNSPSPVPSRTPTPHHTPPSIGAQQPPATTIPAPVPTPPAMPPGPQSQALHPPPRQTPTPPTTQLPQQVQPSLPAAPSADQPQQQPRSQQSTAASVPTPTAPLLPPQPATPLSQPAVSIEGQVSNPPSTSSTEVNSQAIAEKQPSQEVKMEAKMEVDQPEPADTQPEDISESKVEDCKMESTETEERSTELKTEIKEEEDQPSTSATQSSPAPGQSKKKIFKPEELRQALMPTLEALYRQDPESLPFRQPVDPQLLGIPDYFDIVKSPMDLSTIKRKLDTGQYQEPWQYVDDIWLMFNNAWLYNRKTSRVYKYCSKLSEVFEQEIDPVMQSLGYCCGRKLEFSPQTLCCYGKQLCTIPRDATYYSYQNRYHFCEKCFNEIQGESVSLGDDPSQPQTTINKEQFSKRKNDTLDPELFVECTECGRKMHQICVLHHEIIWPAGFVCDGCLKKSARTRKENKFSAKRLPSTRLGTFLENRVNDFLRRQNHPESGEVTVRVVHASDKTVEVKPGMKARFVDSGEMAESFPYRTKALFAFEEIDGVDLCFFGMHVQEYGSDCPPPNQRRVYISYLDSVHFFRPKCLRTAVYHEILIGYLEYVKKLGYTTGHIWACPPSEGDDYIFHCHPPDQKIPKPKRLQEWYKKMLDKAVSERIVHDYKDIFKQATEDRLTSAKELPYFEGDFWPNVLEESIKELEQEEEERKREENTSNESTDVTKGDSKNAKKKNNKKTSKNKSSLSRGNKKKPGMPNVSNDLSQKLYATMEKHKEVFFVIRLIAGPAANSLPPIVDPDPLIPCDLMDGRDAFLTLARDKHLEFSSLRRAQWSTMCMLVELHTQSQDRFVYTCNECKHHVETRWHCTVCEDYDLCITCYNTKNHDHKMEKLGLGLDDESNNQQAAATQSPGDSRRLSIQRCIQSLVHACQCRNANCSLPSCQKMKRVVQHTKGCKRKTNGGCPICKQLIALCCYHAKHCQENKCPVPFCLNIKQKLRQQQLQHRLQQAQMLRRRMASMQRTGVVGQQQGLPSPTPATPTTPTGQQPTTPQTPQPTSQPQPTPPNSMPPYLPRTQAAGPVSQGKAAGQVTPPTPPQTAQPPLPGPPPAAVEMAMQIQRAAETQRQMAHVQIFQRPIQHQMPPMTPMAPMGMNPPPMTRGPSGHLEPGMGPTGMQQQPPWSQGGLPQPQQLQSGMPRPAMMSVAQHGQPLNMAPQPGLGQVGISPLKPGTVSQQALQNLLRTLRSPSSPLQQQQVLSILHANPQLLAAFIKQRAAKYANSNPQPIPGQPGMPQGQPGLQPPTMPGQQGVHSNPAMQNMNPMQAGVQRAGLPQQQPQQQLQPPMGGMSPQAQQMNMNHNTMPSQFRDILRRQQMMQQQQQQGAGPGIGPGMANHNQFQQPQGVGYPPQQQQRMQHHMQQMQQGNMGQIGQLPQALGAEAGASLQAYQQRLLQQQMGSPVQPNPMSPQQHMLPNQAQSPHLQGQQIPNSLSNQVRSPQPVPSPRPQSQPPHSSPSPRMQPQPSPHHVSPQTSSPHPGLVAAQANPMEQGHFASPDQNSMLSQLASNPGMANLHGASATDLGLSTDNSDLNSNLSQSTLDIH

[4] = target: T3, his-tagged wild-type JMY (pET-JMY, bacterially expressed) (UniProt Q9QXM1 1-983); assay: summary of the biochemical binding assays
T3 construct: also called His-JMY; purified recombinant JMY; not shown: His tag from pET28a

[5] = target: T3, his-tagged wild-type JMY (pET-JMY, …); assay: in vitro translated STRAP derivative binding to his-tagged wild-type JMY
[6] = target: p300 (pCMV-p300, expressed in transfected cells) (UniProt Q09472 1-2414); assay: co-immunoprecipitation from STRAP expressing U2OS cells treated with etoposide, against untreated cells
Chain of p300 (pCMV-p300, expressed in transfected cells) (Q09472 whole entry): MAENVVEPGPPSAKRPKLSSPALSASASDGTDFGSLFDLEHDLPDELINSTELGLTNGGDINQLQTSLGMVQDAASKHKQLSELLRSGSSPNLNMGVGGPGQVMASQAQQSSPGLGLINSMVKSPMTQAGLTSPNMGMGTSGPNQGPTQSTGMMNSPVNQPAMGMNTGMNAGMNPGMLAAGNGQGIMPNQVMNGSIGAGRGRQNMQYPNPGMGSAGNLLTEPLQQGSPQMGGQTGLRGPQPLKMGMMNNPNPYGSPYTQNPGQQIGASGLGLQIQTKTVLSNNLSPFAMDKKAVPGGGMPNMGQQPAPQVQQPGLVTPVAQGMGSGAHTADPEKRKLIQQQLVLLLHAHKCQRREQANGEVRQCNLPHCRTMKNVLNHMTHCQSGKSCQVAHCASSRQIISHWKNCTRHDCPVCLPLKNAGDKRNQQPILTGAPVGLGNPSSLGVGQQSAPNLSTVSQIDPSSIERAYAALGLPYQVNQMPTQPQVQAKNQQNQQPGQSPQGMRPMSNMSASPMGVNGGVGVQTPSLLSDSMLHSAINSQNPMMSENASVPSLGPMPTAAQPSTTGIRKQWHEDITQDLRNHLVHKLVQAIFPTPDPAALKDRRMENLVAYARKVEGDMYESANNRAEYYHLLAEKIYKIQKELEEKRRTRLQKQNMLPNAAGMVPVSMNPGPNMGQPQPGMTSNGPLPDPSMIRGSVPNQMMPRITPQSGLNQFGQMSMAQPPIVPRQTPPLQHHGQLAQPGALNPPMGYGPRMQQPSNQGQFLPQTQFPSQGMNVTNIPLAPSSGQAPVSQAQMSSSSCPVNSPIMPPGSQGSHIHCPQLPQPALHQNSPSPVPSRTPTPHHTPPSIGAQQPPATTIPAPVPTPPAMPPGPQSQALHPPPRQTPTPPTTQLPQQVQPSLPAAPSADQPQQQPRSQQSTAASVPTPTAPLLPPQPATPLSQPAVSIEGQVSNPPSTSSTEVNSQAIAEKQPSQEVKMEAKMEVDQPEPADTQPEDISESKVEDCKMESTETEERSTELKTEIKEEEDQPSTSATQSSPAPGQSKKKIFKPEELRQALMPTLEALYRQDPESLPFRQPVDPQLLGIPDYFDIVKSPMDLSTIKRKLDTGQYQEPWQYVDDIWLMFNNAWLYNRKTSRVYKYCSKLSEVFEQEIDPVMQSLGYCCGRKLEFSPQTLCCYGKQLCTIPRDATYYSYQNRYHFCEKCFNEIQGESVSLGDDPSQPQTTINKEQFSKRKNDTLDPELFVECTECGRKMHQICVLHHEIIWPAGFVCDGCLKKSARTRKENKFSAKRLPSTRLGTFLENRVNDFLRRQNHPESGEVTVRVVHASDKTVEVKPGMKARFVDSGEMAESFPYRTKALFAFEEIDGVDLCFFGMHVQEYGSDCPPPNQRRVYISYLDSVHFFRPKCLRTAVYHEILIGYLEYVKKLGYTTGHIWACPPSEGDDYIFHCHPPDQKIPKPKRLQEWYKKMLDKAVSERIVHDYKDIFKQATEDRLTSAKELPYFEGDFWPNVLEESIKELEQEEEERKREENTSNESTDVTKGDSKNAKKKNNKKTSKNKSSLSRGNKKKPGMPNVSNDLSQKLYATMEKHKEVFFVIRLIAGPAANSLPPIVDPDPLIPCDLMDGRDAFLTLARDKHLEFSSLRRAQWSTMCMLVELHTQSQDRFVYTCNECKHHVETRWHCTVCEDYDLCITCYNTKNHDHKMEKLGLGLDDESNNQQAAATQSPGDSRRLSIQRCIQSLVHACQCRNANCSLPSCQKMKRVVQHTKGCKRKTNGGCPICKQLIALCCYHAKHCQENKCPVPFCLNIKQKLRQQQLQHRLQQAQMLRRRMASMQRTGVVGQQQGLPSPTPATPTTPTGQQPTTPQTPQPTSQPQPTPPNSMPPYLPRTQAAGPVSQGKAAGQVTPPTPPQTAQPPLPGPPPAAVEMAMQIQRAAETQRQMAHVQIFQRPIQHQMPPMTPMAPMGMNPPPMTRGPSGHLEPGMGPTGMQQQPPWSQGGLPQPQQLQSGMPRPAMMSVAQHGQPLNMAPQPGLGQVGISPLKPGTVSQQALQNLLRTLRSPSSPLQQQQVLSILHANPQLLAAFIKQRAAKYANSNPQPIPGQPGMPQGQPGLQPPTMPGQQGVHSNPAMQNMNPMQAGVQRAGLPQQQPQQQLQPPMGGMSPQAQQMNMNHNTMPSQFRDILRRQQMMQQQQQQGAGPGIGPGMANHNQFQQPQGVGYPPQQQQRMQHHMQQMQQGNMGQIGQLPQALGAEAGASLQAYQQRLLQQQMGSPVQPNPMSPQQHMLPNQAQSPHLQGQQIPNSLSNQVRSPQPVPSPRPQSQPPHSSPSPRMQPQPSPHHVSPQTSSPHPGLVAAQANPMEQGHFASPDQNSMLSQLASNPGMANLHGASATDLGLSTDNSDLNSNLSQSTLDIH

[7] = target: T2, Flag-tagged full-length p300 …; assay: binding properties of the STRAP mutant derivative
[8] = target: T3, his-tagged wild-type JMY (pET-JMY, …); assay: binding properties of the STRAP mutant derivative
[9] = target: T2, Flag-tagged full-length p300 …; assay: biochemical binding assay with STRAP derivatives (summary in FIG. 7)
[10] = target: T3, his-tagged wild-type JMY (pET-JMY, …); assay: as above
[11] = target: T2, Flag-tagged full-length p300 …; assay: in vitro translated STRAP derivative binding to flag-tagged wild-type p300 on anti-flag agarose

B1: STRAP (construct not stated for the experiment) (other)
chain: EAKHVLQKLQGLVDRLYCFRDSYFETHSVEDAGRKQQDVQEEMEKTLQQMEEVLGSAQVEAQALMLKGKALNVTPDYSPEAEVLLSKAVKLEPELVEAWNQLGEVYWKKGDVTSAHTCFSGALTHCKNKVSLQNLSMVLRQLQTDSGDEHSRHVMDSVRQAKLAVQMDVLDGRSWYILGNAYLSLYFNTGQNPKISQQALSAYAQAEKVDRKASSNPDLHLNRATLHKYEESYGEALEGFSQAAALDPAWPEPQQREQQLLEFLSRLTSLLESKGKTKPKKLQSMLGSLRPAHLGPCGDGRYQSASGQKMTLELKPLSTLQPGVNSGTVVLGKVVFSLTTEEKVPFTFGLVDSDGPCYAVMVYNVVQSWGVLIGDSVAIPEPNLRHHQIRHKGKDYSFSSVRVETPLLLVVNGKPQNSSSQASATVASRPQ
notes: also called 60,000 molecular weight STRAP polypeptide
**Q.** Does B1 bind [1]?
**A.** binds

**Q.** Does B1 bind [2]?
**A.** binds

**Q.** Does B1 bind [3]?
**A.** binds

**Q.** Does B1 bind [4]?
**A.** binds

B2: STRAP123-205 (other, not shown: small tags and cut ends)
chain: HTCFSGALTHCKNKVSLQNLSMVLRQLQTDSGDEHSRHVMDSVRQAKLAVQMDVLDGRSWYILGNAYLSLYFNTGQNPKISQQ
notes: In vitro translated
**Q.** Does B2 bind [5]?
**A.** binds

B3: JMY (pCMV-JMY, expressed in transfected cells) (other, UniProt Q9QXM1 1-983, looked up)
chain: MSFALEETLESDWVAVRPHVFDEREKHKFVFIVAWNEIEGKFAITCHNRTAQRQRSGSREQAGTPASDGSRGPGSPAARGRSEAAASATAALRSPGPRKSQAWAEGGSPRSARSLKGDPPRGPAGRGPESPLRSPARAKASPLRRSAESRDAIASATPVPPAPPVPPVSSVRVVSASGAVSEEIEVLEMVREDEAPQPLPDSEQPPSAAELESSAEECSWAGLFSFQDLRAVHQQLCSVNSQLEPCLPVFPEEPSGMWTVLFGGAPEMTEQEIDALCYQLQVYLGHGLDTCGWKILSQVLFTETDDPEEYYESLSELRQKGYEEVLQRARRRIQELLDKHKTIESMVELLDLYQMEDEAYSSLAEATTELYQYLLQPFRDMRELAMLRRQQIKISMENDYLGPRRIESLQKEDADWQRKAHMAVLSIQDLTVKYFEITAKAQKAVYDRMRADQKKFGKASWAAAAERMEKLQYAVSKETLQMMRAKEICLEQKKHALKEEMQSLQGGTEAIARLDQLESDYYDLQLQLYEVQFEILKCEELLLTAQLESIKRLISEKRDEVVYYDTYESMEAMLEKEEMAASVHAQREELQKLQQKARQLEARRGRVSAKKAYLRNKKEICIAKHHEKFQQRFQSEDEYRAHHTIQIKRDKLHDEEERKSAWVSQERQRTLDRLRTFKQRYPGQVILKSTRLRVAHSRRKSTASPVPCEEQCHSLPTVLQGQEKTEVGGGGSQLGPSQTAEPQSLVQLEDTSSEQLESTSLPPRAVVSSELPPPQSAPLLTSIDPKPCSVTIDPLPPPLPPTPPPPPPPPPPPPPPLPVAKDNGASTTAETLEKDALRTEGNERSIPKSASAPAAHLFDSSQLVSARKKLRKTVEGLQRRRVSSPMDEVLASLKRGSFHLKKVEQRTLPPFPDEDDSNNILAQIRKGVKLKKVQKEVLRESFTLLPDTDPLTRSIHEALRRIKEASPESEDEEEALPCTDWEN
notes: also called JMY co-factor; wild-type JMY
**Q.** For B3, which “fold increase in the level of co-immunoprecipitated JMY with p300” value [6] is on record?
**A.** ~10 fold

B4: STRAP8-205 (other, not shown: small tags and cut ends)
chain: EAKHVLQKLQGLVDRLYCFRDSYFETHSVEDAGRKQQDVQEEMEKTLQQMEEVLGSAQVEAQALMLKGKALNVTPDYSPEAEVLLSKAVKLEPELVEAWNQLGEVYWKKGDVTSAHTCFSGALTHCKNKVSLQNLSMVLRQLQTDSGDEHSRHVMDSVRQAKLAVQMDVLDGRSWYILGNAYLSLYFNTGQNPKISQQ
**Q.** Does B4 bind [7]?
**A.** no binding

**Q.** Does B4 bind [8]?
**A.** binds

B5: STRAP8-123 (other)
chain: EAKHVLQKLQGLVDRLYCFRDSYFETHSVEDAGRKQQDVQEEMEKTLQQMEEVLGSAQVEAQALMLKGKALNVTPDYSPEAEVLLSKAVKLEPELVEAWNQLGEVYWKKGDVTSAH
notes: A pET form also exists; not shown: HA tag (pCMV-HA, in vitro translated) or His tag (pET28C, purified)
**Q.** Does B5 bind [9]?
**A.** no binding

**Q.** Does B5 bind [10]?
**A.** binds

B6: STRAP206-438 (other, not shown: small tags and cut ends)
chain: ALSAYAQAEKVDRKASSNPDLHLNRATLHKYEESYGEALEGFSQAAALDPAWPEPQQREQQLLEFLSRLTSLLESKGKTKPKKLQSMLGSLRPAHLGPCGDGRYQSASGQKMTLELKPLSTLQPGVNSGTVVLGKVVFSLTTEEKVPFTFGLVDSDGPCYAVMVYNVVQSWGVLIGDSVAIPEPNLRHHQIRHKGKDYSFSSVRVETPLLLVVNGKPQNSSSQASATVASRPQ
notes: In vitro translated
**Q.** Does B6 bind [5]?
**A.** binds

**Q.** Does B6 bind [11]?
**A.** binds
